Target: the molecule itself
Assay: cryo-EM structure

B1: hSARM1 (residues 28–724), sample for cryo-EM (enzyme, human, UniProt Q6SZW1 28-724, looked up)
chain: LAVPGPDGGGGTGPWWAAGGRGPREVSPGAGTEVQDALERALPELQQALSALKQAGGARAVGAGLAEVFQLVEEAWLLPAVGREVAQGLCDAIRLDGGLDLLLRLLQAPELETRVQAARLLEQILVAENRDRVARIGLGVILNLAKEREPVELARSVAGILEHMFKHSEETCQRLVAAGGLDAVLYWCRRTDPALLRHCALALGNCALHGGQAVQRRMVEKRAAEWLFPLAFSKEDELLRLHACLAVAVLATNKEVEREVERSGTLALVEPLVASLDPGRFARCLVDASDTSQGRGPDDLQRLVPLLDSNRLEAQCIGAFYLCAEAAIKSLQGKTKVFSDIGAIQSLKRLVSYSTNGTKSALAKRALRLLGEEVPRPILPSVPSWKEAEVQTWLQQIGFSKYCESFREQQVDGDLLLRLTEEELQTDLGMKSGITRKRFFRELTELKTFANYSTCDRSNLADWLGSLDPRFRQYTYGLVSCGLDRSLLHRVSEQQLLEDCGIHLGVHRARILTAAREMLHSPLPCTGGKPSGDTPDVFISYRRNSGSQLASLLKVHLQLHGFSVFIDVEKLEAGKFEDKLIQSVMGARNFVLVLSPGALDKCMQDHDCKDWVHKEIVTALSCGKNIVPIIDGFEWPEPQVLPEDMQAVLTFNGIKWSHEYQEATIEKIIRFLQGRSSRDSSAGSDTSLEGAAPMGPT
- stoichiometry N: 8

— paper PMC9188649 (Molecular cell, 2022)
